Tests used:
[1] = target: T1, LASV L protein (WT) (Lassa virus Bantou 289, UniProt A0A3S8NV63 1-2217); assay: EMSA; conditions: protein: recombinant; tags: internal StrepII after residue 407, or C-terminal StrepII-His; label: 5' Cyanine3; single strand
[2] = target: T1, LASV L protein (WT); assay: cryo-EM; PRE-[…]ON, 3.34 A; conditions: protein: recombinant; tags: internal StrepII after residue 407, or C-terminal StrepII-His

B1: 3' vRNA 1-10 nt (ssRNA)
RNA: CCACUGUGCG
binding result [1]: binds

B2: full promoter: 5' vRNA 0-19 / 3' vRNA 1-19 (structured_RNA)
RNA 1: GCGCACCGGGGAUCCUAGGC
RNA 2: GCCUAGGAUCCACUGUGCG
binding result [2]: binds

From publication PMC8639829
